Laboratory results: patent US6808893

Experiments:
[1] = target: GTRAP4-48 (glutamate transporter 4 associated protein), full-length (rat) (UniProt Q9ES67); experiment: cell-based or functional assay
[2] = target: EAAT4, full-length glutamate transporter (rat) (UniProt O35921); experiment: cell-based or functional assay
Chain of EAAT4, full-length glutamate transporter (rat) (O35921 whole entry): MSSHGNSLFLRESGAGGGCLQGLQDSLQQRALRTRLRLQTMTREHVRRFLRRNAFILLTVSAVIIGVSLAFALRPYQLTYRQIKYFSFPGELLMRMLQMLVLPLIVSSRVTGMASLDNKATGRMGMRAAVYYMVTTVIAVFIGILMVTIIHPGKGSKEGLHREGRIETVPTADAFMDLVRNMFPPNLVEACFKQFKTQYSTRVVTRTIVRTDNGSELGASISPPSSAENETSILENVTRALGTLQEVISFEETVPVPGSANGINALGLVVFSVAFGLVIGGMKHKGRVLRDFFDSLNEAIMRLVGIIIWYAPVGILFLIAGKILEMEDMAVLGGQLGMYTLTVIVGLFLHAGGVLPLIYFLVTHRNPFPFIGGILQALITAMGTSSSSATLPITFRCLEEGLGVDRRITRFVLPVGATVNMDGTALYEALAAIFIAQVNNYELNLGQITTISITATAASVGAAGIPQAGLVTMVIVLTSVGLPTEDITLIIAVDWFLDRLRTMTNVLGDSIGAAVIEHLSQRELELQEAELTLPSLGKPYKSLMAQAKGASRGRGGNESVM

Chain of GTRAP4-48 (glutamate transporter 4 associated protein), full-length (rat) (Q9ES67 whole entry): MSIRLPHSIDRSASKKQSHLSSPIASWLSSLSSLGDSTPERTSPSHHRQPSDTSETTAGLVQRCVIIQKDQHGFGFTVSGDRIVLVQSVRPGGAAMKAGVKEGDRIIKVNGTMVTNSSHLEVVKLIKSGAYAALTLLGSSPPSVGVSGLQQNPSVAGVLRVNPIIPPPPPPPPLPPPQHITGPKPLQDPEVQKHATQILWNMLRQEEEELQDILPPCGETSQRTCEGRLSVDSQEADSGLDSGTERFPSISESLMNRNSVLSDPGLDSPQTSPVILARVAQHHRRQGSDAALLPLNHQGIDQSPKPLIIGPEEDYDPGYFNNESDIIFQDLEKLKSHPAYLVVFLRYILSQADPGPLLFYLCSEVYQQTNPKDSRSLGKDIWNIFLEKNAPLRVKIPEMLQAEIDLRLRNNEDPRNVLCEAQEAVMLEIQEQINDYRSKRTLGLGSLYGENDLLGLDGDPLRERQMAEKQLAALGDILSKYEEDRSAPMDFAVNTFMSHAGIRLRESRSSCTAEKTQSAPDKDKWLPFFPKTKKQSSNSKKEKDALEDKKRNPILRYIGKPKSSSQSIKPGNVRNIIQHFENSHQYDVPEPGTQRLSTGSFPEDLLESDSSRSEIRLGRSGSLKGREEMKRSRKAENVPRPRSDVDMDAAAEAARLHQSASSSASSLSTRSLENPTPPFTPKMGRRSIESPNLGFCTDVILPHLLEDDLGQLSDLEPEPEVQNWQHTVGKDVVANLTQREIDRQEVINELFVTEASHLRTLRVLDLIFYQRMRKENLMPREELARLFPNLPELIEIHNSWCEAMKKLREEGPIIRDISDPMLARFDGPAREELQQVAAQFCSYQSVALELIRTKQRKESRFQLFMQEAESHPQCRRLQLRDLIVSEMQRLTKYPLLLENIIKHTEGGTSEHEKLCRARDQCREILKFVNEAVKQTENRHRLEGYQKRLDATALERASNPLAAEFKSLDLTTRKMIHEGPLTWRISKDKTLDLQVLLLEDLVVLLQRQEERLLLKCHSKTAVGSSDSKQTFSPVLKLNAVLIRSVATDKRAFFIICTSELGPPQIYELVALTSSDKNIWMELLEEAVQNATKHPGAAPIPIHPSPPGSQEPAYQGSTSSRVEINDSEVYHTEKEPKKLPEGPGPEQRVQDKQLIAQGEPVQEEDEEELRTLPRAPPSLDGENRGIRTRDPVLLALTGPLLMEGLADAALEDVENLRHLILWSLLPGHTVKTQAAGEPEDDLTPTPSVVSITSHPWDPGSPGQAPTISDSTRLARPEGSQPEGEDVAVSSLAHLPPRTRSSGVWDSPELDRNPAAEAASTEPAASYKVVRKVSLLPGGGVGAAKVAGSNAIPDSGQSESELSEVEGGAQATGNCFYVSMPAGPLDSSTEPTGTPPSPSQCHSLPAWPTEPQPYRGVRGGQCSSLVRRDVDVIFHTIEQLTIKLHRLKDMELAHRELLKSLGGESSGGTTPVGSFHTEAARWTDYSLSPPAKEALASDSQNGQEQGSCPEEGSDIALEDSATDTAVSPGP

**Q.** How did the GTRAP4-48 mediated increase of EAAT4 uptake activity in HEK-rEAAT4 cells [1] turn out when “myc-tagged construct encoding the last 77 amino acids of EAAT4 (from UniProt O35921 485-561)” was run?
**A.** 25%

**Q.** What does the source list for “GTRAP4-41 (glutamate transporter 4 associated protein), full-length, Q9QWN8 2-2388”?
**A.** Km of Na+-dependent L-[3H]-glutamate uptake with GTRAP41 [2]: 11 µM; Na+-dependent glutamate transport in HEK-rEAAT4 cells [2]: 2 fold; Vmax of Na+-dependent L-[3H]-glutamate uptake with GTRAP41 [2]: 605 pmol/mg/min
